Measurements reported in US20210054094A1 (Hoffmann-La Roche, published 2021).

Molecular target: human GPRC5D (human, UniProt Q9NZD1 1-345)
Test: cell-based or functional assay

Chain of human GPRC5D (Q9NZD1 whole entry): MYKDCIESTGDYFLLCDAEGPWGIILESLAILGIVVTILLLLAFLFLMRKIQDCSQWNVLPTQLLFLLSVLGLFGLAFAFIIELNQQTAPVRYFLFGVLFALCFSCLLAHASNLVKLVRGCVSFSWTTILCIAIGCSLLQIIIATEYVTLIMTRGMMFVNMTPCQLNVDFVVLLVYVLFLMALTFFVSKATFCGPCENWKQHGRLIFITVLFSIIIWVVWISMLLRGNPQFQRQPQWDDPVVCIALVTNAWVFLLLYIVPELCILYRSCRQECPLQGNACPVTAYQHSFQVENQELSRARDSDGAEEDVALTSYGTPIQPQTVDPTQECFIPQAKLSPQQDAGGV

Row | Binder | CAR-J2 EC50 (PGLALA-CAR-J activation, L363 target cells)
1 | P1AE5739 (antibody, V domains shown) VH: EVQLVESGGGVVQPGRSLRLSCAASGFSFSNYGMAWVRQAPGKGLEWVASISTGGGNTYYRDSVKGRFTISRDNAKNTLYLQMNSLRAEDTAVYYCTRHDRGGLYWGQGTMVTVSS VL: DIVMTQSPLSLPVTPGEPASISCRSSKSLLHSNGITYVYWYLQKPGQSPQVLIYRMSNLASGVPDRFSGSGSGTDFTLKISRVEAEDVGVYHCGQLLENPYTFGQGTKLEIK | 23.5 ng/mL
2 | P1AE5735 (antibody, V domains shown) VH: QVQLVESGGGVVQPGRSLRLSCAASGFSFSNYGMAWVRQAPGKGLEWVASISTGGGNTYYRDSVKGRFTISRDNSKNTLYLQMNSLRAEDTAVYYCTRHDRGGLYWGQGTMVTVSS VL: DIVMTQSPLSLPVTPGEPASISCRSSKSLLHSNGITYVYWYLQKPGKSPQVLIYRMSNLASGVPDRFSGSGSGTDFTLKISRVEAEDVGVYHCGQLLENPYTFGQGTKLEIK | 82.1 ng/mL
3 | P1AE5734 (antibody, V domains shown) VH: QVQLVESGGGVVQPGRSLRLSCAASGFSFSNYGMAWVRQAPGKGLEWVASISTGGGNTYYRDSVKGRFTISRDNSKNTLYLQMNSLRAEDTAVYYCTRHDRGGLYWGQGTMVTVSS VL: DIVMTQSPLSLPVTPGEPASISCRSSKSLLHSNGITYVYWYLQKPGQSPQVLIYRMSNLASGVPDRFSGSGSGTDFTLKISRVEAEDVGVYHCGQLLENPYTFGQGTKLEIK | 41.5 ng/mL

More lines, now with the values ahead:

Row | CAR-J2 EC50 (PGLALA-CAR-J activation, L363 target cells) | Binder
4 | 8.96 ng/mL | P1AE5740 (antibody, V domains shown) VH: EVQLVESGGGVVQPGRSLRLSCAASGFSFSNYGMAWVRQAPGKGLEWVASISTGGGNTYYRDSVKGRFTISRDNAKNTLYLQMNSLRAEDTAVYYCTRHDRGGLYWGQGTMVTVSS VL: DIVMTQSPLSLPVTPGEPASISCRSSKSLLHSNGITYVYWYLQKPGKSPQVLIYRMSNLASGVPDRFSGSGSGTDFTLKISRVEAEDVGVYHCGQLLENPYTFGQGTKLEIK
5 | 1.62 ng/mL | P1AE5745 (antibody, V domains shown) VH: QVQLVESGGGVVQPGRSLRLSCAASGFSFSNYGMAWVRQAPGKGLEWVASISTGGGNTYYADSVKGRFTISRDNSKNTLYLQMNSLRAEDTAVYYCTRHDRGGLYWGQGTMVTVSS VL: DIVMTQSPLSLPVTPGEPASISCRSSKSLLHSNGITYVYWYLQKPGKSPQVLIYRMSNLASGVPDRFSGSGSGTDFTLKISRVEAEDVGVYHCGQLLENPYTFGQGTKLEIK
6 | 1.4 ng/mL | P1AE5741 (antibody, V domains shown) VH: EVQLVESGGGVVQPGRSLRLSCAASGFSFSNYGMAWVRQAPGKGLEWVASISTGGGNTYYRDSVKGRFTISRDNAKNTLYLQMNSLRAEDTAVYYCTRHDRGGLYWGQGTMVTVSS VL: DIVMTQSPLSLPVTPGEPASISCRSSKSLLHSNGITYVYWYLQKPGQSPQLLIYRMSNRASGVPDRFSGSGSGTDFTLKISRVEAEDVGVYHCGQLLENPYTFGQGTKLEIK
7 | 3.63 ng/mL | P1AE5744 (antibody, V domains shown) VH: QVQLVESGGGVVQPGRSLRLSCAASGFSFSNYGMAWVRQAPGKGLEWVASISTGGGNTYYADSVKGRFTISRDNSKNTLYLQMNSLRAEDTAVYYCTRHDRGGLYWGQGTMVTVSS VL: DIVMTQSPLSLPVTPGEPASISCRSSKSLLHSNGITYVYWYLQKPGQSPQVLIYRMSNLASGVPDRFSGSGSGTDFTLKISRVEAEDVGVYHCGQLLENPYTFGQGTKLEIK
8 | 1.38 ng/mL | P1AE5736 (antibody, V domains shown) VH: QVQLVESGGGVVQPGRSLRLSCAASGFSFSNYGMAWVRQAPGKGLEWVASISTGGGNTYYRDSVKGRFTISRDNSKNTLYLQMNSLRAEDTAVYYCTRHDRGGLYWGQGTMVTVSS VL: DIVMTQSPLSLPVTPGEPASISCRSSKSLLHSNGITYVYWYLQKPGQSPQLLIYRMSNRASGVPDRFSGSGSGTDFTLKISRVEAEDVGVYHCGQLLENPYTFGQGTKLEIK
